For 2 substances, stoichiometry N results are on record in PMC6392501.

One may read the stoichiometry N as the number of molecules, sites or subunits per partner or assembly.

Assay [1] addresses C-terminal coiled-coil of hTMEM266 (residues 224–289) (human) (UniProt Q2M3C6). The experiment in a line: non-reducing SDS-PAGE; purified coiled-coil run on SDS-PAGE with or without 2-ME; single species (monomer) with 2-ME, additional band at ~15 kDa without.
For assay [2], the target named is C-terminal twin-Strep-tagged hTMEM266 (human) (UniProt Q2M3C6). The experiment in a line: cross-linking; DSS (varying concentration) applied to intact HEK 293T cells expressing Strep-tagged hTMEM266; membrane fractions on SDS-PAGE; Western blot with anti-Strep antibody. A general note: In western blotting, separated proteins are transferred to a membrane and probed.

The target is the same in assay [3]. The experiment in a line: cross-linking; air oxidation (disulfide) of membrane fractions of HEK 293T cells expressing Strep-tagged hTMEM266; 10 mM NEM; SDS-PAGE with or without 2-ME; Western blot with anti-Strep antibody.

In assay [1], “C-terminal coiled-coil of hTMEM266 (residues 224–289) (from UniProt Q2M3C6 224-289) (domain or fragment)” yielded a stoichiometry N of 2. Turning to “C-terminal twin-Strep-tagged hTMEM266 (from UniProt Q2M3C6 1-523) (natural protein)”, the stoichiometry N in assay [2] and in assay [3] was 2 in each case.
